# Laboratory results taken from the nanobody polyreactivity screen of Harvey et al. (2022).
# Test: yeast display, Sf9 membrane polyspecificity reagent, FACS + sequencing; frameworks hold sequencing errors
# Method in brief: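 Using colony PCR, genes from sorted yeast display clones were amplified, then sequenced on MiSeq at 2 × 250 and filtered by CDR length. The clones had been stained with 10% biotinylated, detergent-solubilized Sf9 membrane reagent for 1 hour at 4 °C and sorted by FACS into low and high (top ~1%) gates on anti-HA and streptavidin fluorescence. Polyreactivity labels come from the gate of origin.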
row,Sequence,polyreactivity (PSR sort gate)
1,QVQLVESGGGLVQAGGSLRLICAASGSTFAQNTMGWYRQAPGKERELVATISDGGGSTYYADSVKGRFTISRDNAKNTVYLQMNSLKPEDTSVYYCNTDRFWPSDFWGQGTQVTVSS,low polyreactivity
2,QVQLVESGGGLVQAGGSLRLICAASGSTFARYAMGWYRQAPGKERELVAVIRSGGSTNYADSVKGRFTISRDNAKNTVYLQMNSMKTEDTAGAADQWTIHRWATYGYWGQGTQVTVSS,low polyreactivity
3,QVQLVESGGGLVQAGGSLRLICAASGSTFAYNDMGWYRQAPGTERELVADIRSGGNTNYADSVKGRFTISRDNAKNTVYLQMNSLKPEDTAVYYCATDGYRIDVYHPDYRYDYWGQGTQVTVSS,low polyreactivity
4,QVQLVESGGGLVQAGGSLRLICAASGSTFDQNVMGWYRQAPGKDRELVGTINFSGDSTYYADSVKGRFTISRDNAKNTVYLQMNSLKPEDPAVYYCAVDWGEYIDTSVKRDISYYWGQGTQVTVSS,low polyreactivity
5,QVQLVESGGGLVQAGGSLRLICAASGSTFEAYAMGWYRQAPGKDSELVAAIRSSGSTSYADSVKGRFTISRDNAKNTVYLQMKSLKPEDTALYYGAARVRGYPRYKRDYWGQGTQVTVSS,high polyreactivity
6,QVQLVESGGGLVQAGGSLRLICAASGSTFFYYAMGWYRQAPGKERELVARISGGGSTNYADSVKGRFTISRDNAKNTVYLKMNSLNPEDTAVYYCAADRYHYYRYSYGRYGYWGQCTQVTVSS,high polyreactivity
7,QVQLVESGGGLVQAGGSLRLICAASGSTFGANAMGWYRQAPGKEREFVAAISGSGTTTYYADSVKGRFTISRDNAKNTVYLQMNSLKPEDTPVYYCAKTRKAHWLEYWGQGTQVTVSS,low polyreactivity
8,QVQLVESGGGLVQAGGSLRLICAASGSTFGLNTMGWYRQAPGKDRELVAGITWSGGTTYYADSVKGRFTISRDNAKNTVYLQMNSLKPEDTAVYYCAAAVCDHYWYSRAYYYWGQGTQVTLSS,high polyreactivity
9,QVQLVESGGGLVQAGGSLRLICAASGSTFKWYAMGWYRQAPGKERELVAAISSSGGTTYYADSVKGRFTISRDNAKNTVYLQMNSLKPEDTAVYYCAKPYLYSGYGYWGQGTQVTVSS,high polyreactivity
10,QVQLVESGGGLVQAGGSLRLICAASGSTFLGYAMGWYRQAPGKERELVAAITYSAGSTYYADSVKGRFTISRDNAKNTVYLQMNSLKPEDTAVYYCAKRYSGYDHWGQGTQVTVSS,low polyreactivity
11,QVQLVESGGGLVQAGGSLRLICAASGSTFNGYVMGWYRKAPGKERELVAAISRSGGSTYYADSVKGRFTNSRDNAKNTVYLQMNSLKPEDTAVYDCAAAPPLAGLGGYYWGQGTQVTVSS,high polyreactivity
12,QVQLVESGGGLVQAGGSLRLICAASGSTFNIKAMGWYRQAPGKERELVAAISSRGGSTYYADSVKGRFTISRDNAKNTVYLQMNSLKPEDTAVYYCALAAGIPQRRYYYWGQGTQVTVSS,high polyreactivity
13,QVQLVESGGGLVQAGGSLRLICAASGSTFNYNAMGSSRQAPGKERELVAAISQTTSRTYYADSVKGRFTISRDNAKNTVYLQMNSLKPEDTAVYYCATKRWTRDRQRPRTQYYLFYYWGQGTQVTVSS,high polyreactivity
14,QVQLVESGGGLVQAGGSLRLICAASGSTFNYNAMGWYRQAPGKERELVAAISSSGGSTYYADSVKGRFTISRDNAKYTVYLQMNSLKREDTAVYYCAASGGYGQYNYWGQGTQVTVSS,low polyreactivity
15,QVQLVESGGGLVQAGGSLRLICAASGSTFPYYDMGWYRQAPGKETELVAAISWSGDSTYYADSVKGRFTISRDNAKNTVYLQMNSLKPEDTAVYYCAAYSDYWSYLSTDDYWGQGTQVTVSS,low polyreactivity
16,QVQLVESGGGLVQAGGSLRLICAASGSTFSYNAMGWYRQAPGKEREFVAAITSSGSSTYYADSVKGRFTISRYNAKNTVYLQMNSLKPEDTAVYYCNAEVLFVAGQVQRNSGDYWGQGTQVTVSS,low polyreactivity
17,QVQLVESGGGLVQAGGSLRLICAASGSTFTRYAMGWYRQAPGKERELVAAITSSGSRTYYADSVKGRFTISRDNAQNTVYLQMNSLKPEDTAVYYFAALGDTRYVGMDHWGQGTQVTVSS,high polyreactivity
18,QVQLVESGGGLVQAGGSLRLICAASGSTFYFYAMGWYRQAPGKERELVAVISSGGSTYYADSVKGRFTISRDNAKNTVYLQMNSLKPEDTAVYYCAAYYYYTLYYRYDYWGQGTQVNVSS,low polyreactivity
19,QVQLVESGGGLVQAGGSLRLICAASGSTIGTNAMGWYRQAPGKERELVAAISRSGGRTYYADSVKGRFTISRDNAKNTVYLQMNSLKPEDTAVYYCAKAGLYTEYDYWGQGTQVTVSS,high polyreactivity
20,QVQLVESGGGLVQAGGSLRLICAASGSTLFYNAMGWYRQAPGKERELVAAISSGVRTNYADSVKGRFTISRDNAKITVYLQMNSLKPEDTALYYCAAATYNQDYSYDYWGQGTQVTVSS,low polyreactivity
21,QVQLVESGGGLVQAGGSLRLICAASGSTLNSYVMGWSRQAPGKERDMVATIRSGSSTNYADSVKGRFTISRDNAKNTVYFQMNSLIPEDTAVYSCAADAYSLCYDSWGQGTQVTVSS,low polyreactivity
22,QVQLVESGGGLVQAGGSLRLICAASGSTYRYYAMGWSRQAPGKERELVAGITGSGGSTYYADSVKGRFTISRDNAKNTVYLQMNSLNPEDTAVYDCATKLRRWRFYAAYDYWGQGTQVTVSS,high polyreactivity

row,Sequence,polyreactivity (PSR sort gate)
1,QVQLVESGGGLVQAGGSLRLICAASGTFDHYAMGWDRQAPGKERELVAAISWSGGSTYYADSVKGRFTISRDNAKNTVYLQMNSLKPEDTAVYYCNAETDGYFESNDFDYWGQGTQVTVSS,high polyreactivity
2,QVQLVESGGGLVQAGGSLRLICAASGVIFLRYAMGWYRQAPGKERELVAAISSSGDITYYADSVKGRFTISRDNAKNTVYLQMYSLKPEDTAVYYCAATVGLWEYGYWGQGTQVTVSS,low polyreactivity
3,QVQLVESGGGLVQAGGSLRLICAASGVSNAKGWYRQAPGKERELVAAISRSGGSTYYADSVKGRFTISRDNAKNTVYIQMNSLKPEDTAVYYCAAGYRTRGLYSRLDWGQGTQVTVSS,high polyreactivity
4,QVQLVESGGGLVQAGGSLRLICAASGYIFTYNAMGWYRQAPGKERELVAAISSGDGRTYYADSVKGRFTISRDNAKNTVYLQMNSLTPEDTAVYYCNATRVVYRQAYLYGYDYWGQGTQVTVSS,low polyreactivity
5,QVQLVESGGGLVQAGGSLRLICAASGYIFVRNAMGWYRQAPGKEREFVATISRRGGTTYYADSVKGRFTISRDNAKNTVYLQMNSLKPEDTAVYYCAARNWPSRGYKYWGQGTQVTVSS,high polyreactivity
6,QVQLVESGGGLVQAGGSLRLICAASGYTFALYAIGWYRQATGKERELVAAITDSDGSTYADSVKGRFTISRDNAKNTFYLQMNSLKQEDTAVYYCAARDPHLQGYSYLSYLTMDYWGQGTQVTVSS,low polyreactivity
7,QVQLVESGGGLVQAGGSLRLICAASVSIFKAYAMGWYRQAPGKEMELVARIRYRGGSTYYADSVKGRFTISRDNAKNTVYLQMNSLKPEDTAVYYCAARFSPYHTDRGDYWGQGTQVTVSS,high polyreactivity
8,QVQLVESGGGLVQAGGSLRLICAATGSIFPVYAMVWSRQAPGKEREFVARIRFSGGRTYYADSVKGRYTISRDNAMNTVYLQMNSLKPEDTAVYYCAKDFRGYRWSYYWGQGTQVTVSS,high polyreactivity
9,QVQLVESGGGLVQAGGSLRLICAATGSTFVYNAMGWYRQAPGKEREFVAVINWSGGRTYADSVKGRFTISRDNAKNTVYLQMNSLKPEDTAVYYCNGERRTYRVALQYRRYDYWGQGTQVTVSS,high polyreactivity
10,QVQLVESGGGLVQAGGSLRLICAAYGITIGVYAMGWYRQAPVKERELVAAISSSGDTTYYADSVKGRFTISRDNAKNTVYLQKNSLKPEDTAVYYSAAYSHHQFSRSEYYYWGQGTQVTVSS,low polyreactivity
11,QVQLVESGGGLVQAGGSLRLICADSGRIFGWYAMGWYRQAPGKERELVAAITSGSRTSYADSVKGRFTISRDNAKNTVYLQMNSLKPEDTAVYYCNRVSHLDYYWGQGTQVTVSS,high polyreactivity
12,QVQLVESGGGLVQAGGSLRLICADSRRTFVSYTMGWYRQAPAKERELVAAISSGGSTTYADSVKGRFTISRDNAKNTVYLQMNSLKPEDTAVYYGNARYGWSYWSKYDYWGQGTQVNVSS,high polyreactivity
13,QVQLVESGGGLVQAGGSLRLICDASGIIFFPYAMGWYRQAPGKEREFVAAIRATGDNTYYADSVKGRFTISRDNAKNTVYLQMNSLKPEDTAVYYCAADRGTYQVDYWGQGTQVTVSS,low polyreactivity
14,QVQLVESGGGLVQAGGSLRLICDASGRILTGNAMGWYRQAPGKERELVAAISYNGGRTYYADSVKGRFTISRDNAKNTVYLQMNSLKPEDTAVYYCNVVRRQLQTSHPYGYWGQGTQVTVSS,low polyreactivity
15,QVQLVESGGGLVQAGGSLRLICDASGSTFAYNDMGWYRQAPGKERELVAAITYSGGSTYYADSVKGRFTISRDNAKNTVSLQMNSLKPEDTAVYYCNAYTGYPYEYWGQGTQVTVSS,low polyreactivity
16,QVQLVESGGGLVQAGGSLRLICDASGSTFGYYAIGGYRQAPGKERELVAVINKSGGRTYYADSVKGRFTISRDNAKNTVYLQMNSLKPEDTAVYYCATRVTSTRHDYWGQGTQVTVSS,high polyreactivity
17,QVQLVESGGGLVQAGGSLRLICDDSGSILSYNTMGWYRQAPGKEREFVAGITYSGSRTYYADSVKGRFTISRDNAKNTVSLQMNSLKPVDTAVYYCAKRNYYRMYWGQGTQVTVSS,high polyreactivity
18,QVQLVESGGGLVQAGGSLRLICPASGSIFYYYAMGWYRQAPGKERELVAAISYSDDDTYYADSVKGRFTISRDNAKNTVYLQMNSLKPEDTAVYYCAAEFTIAWSYTMDYWVQGTQVTVSS,high polyreactivity
19,QVQLVESGGGLVQAGGSLRLICSASGRTFLYNSMGWYRQAPGKERELVAAIRWSGGTTYYADSVKGRFTISRDNAKYNVYLQMNSLKPEDTAVYYCAARWGPYYGGVRYGYWGQGTQVTVSS,high polyreactivity
20,QVQLVESGGGLVQAGGSLRLIFAASGSIFNRYTMGWYRQAPGKERELVADISKSGTRTYYADSVKGRFTISRDNAKNTVYLQMNSLKPEDTAVYYCAKSSVAVYQTRYDYWGQGTQVTVSS,high polyreactivity
21,QVQLVESGGGLVQAGGSLRLISAASGFIFRYNAMGWYRQAPGKESELVATISSGGGNTYYADSVKGRFTISRDNAKNTVYLQMNSLKPEDTAVYYCAARRYYGVYYAFYYWGQGTQVTVSS,high polyreactivity
